Laboratory results as given in article PMC11470942 (Nature Communications, 2024).

Biological target: HPIV3 fusion protein (F), parental (Human parainfluenza virus 3, strain …, UniProt P06828)
Assay: immunostaining of cells or tissue

HPIV3 fusion protein (F), parental, sequence (P06828 19-539): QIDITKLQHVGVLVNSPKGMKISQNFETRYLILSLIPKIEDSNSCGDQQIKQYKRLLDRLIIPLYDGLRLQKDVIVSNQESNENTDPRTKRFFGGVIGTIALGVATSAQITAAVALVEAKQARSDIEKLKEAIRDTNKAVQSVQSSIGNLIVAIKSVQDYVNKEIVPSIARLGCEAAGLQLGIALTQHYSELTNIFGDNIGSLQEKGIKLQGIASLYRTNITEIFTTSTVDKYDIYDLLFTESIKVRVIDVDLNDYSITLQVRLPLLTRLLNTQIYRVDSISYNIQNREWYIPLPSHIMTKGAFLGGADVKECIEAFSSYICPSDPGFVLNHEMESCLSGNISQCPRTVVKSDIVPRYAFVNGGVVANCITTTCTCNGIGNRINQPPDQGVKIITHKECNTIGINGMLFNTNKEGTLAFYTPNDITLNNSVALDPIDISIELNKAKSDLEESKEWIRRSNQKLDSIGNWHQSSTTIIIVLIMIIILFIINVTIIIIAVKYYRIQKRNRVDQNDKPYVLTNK

B1: PIA174 antibody fragment (Fab) (Fab, V domains shown)
VH: VQLQESGPGLVKPSETLSLTCTVSGGSVSSYYWSWIRQPPGKGLEWIGNIYYSGTTKYNPSLKSRVTISVDVSKNQFSLNLISVTAADTAVYFCARQVKSGWFVQPFDYWGQGALVTVSS
VL: QMTQSPPSLSAYVGDRVTITCRASQAIANYLAWFQQKPGKAPKSLIYAASTLQSGVPSRFSGSGSGTDFTLTISSLQPEDFATYYCHQYNTYPITFGQGTRLEIK
B1: binds.
